This is an account of results in patent publication US20160152729A1.

pKd: −log10 of the molar value.

The target in this assay is human TFPIα (human) (UniProt P10646). Nature of the assay: SPR Biacore T200; antibody captured on anti-human IgG Fc; TFPI as analyte; 1:1 model.

By pKd is commonly meant the negative decadic logarithm of the Kd, by convention in mol/L. A higher pKd goes with a small Kd. As usually defined, the koff is the first-order rate constant of dissociation. A higher koff goes with a short-lived complex. Usually kon stands for the rate constant with which the complex forms. Take Bay 2A8-K95L (antibody): the pKd is 9.31, the koff amounted to 0.000399 s⁻¹ and the kon is 822000 M⁻¹ s⁻¹.
